In a protein production outcome set (Wang et al. 2014):

Test: label from the status in PepcDB records
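Further: failed if final PepcDB status was selected cloned or expressed and not failed if soluble or beyond.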

Sequence	protein production
MAVTLQQTLIDIDEEQLVFHLHNDQISYILGVETGNVLAHLYFGPRVRGYHGERQYPRIDRGFSGNLPNTTDRSYSKDDLPQEYGGNNTGDYRQPAAIIRAANGARTVDFRYQDCRMEAGKPELKGLPQTYVEDEDEAQTLIVTLRDATLGVTLELAYTIYRDRPVITRSARLINHSEQAVDLEKVASMQMDLPTQPLDAISLPGSYARERQLSRERLHRGVTQFESRRGASSHHMNPFVALADPNTNEFQGNVLGALLIYSGNHQISLERDPIGQTRLTMGINEYNFDWRLAAGDSFQTPEVAMVYSTTGLNGMSQTYHDLLRDRVARSRYKHDLRPILINNWEATYFDFDADKIQSILDAAAPLGIEMFVLDDGWFGHRNDDNSSLGDWFVNRNKLPGGLADISKRTHDKGMRFGLWFEPENISADSDLYRAHPDWVLGVPDRGRTLSRNEYVLDFSQPDVVDNIFEQMTAVLDKVPIDYIKWDMNRNLTEVYSPHSDSTHEGETSHRFILGVYDLMERLTKRYPQILFEGCSGGGGRFDAGLMYYMPQSWPSDNNDPIERLKIQYGTSLVYPISAITAHVGTSPDELLGRSTSMKMRGAVAMSGTLGYELDAAQLSDADKQAVKRQVAFYKQHRELVQYGTFYRLESPFESNTVAWMFVSPDQKEALLFTFVILGAVQPEPHITKLAGLDPQQTYVETDTNKMYGGDELMQLGLYTTPVQTSDFTAQVHYFKAKDLEHHHHHH	failed
TVAVSQIVEHPALDATRQGLLDGLKAKGYEEGKNLEFDYKTAQGNPAIAVQIARQYVGESPDVLVGIATPSAQALVSATRTIPVVFTAVTDPVGAKLVKSMKQPGKNVTGLSDLSPVAQHVELIQEILPQVKSIGVVFNPGEANAVTLVNLLKESAEAKGIKVVEATALKSADVQSATQAIAAKSDILYAPTDNTVASAIEGMIVAANQAKKPVFGGATSYVEKGAIAGLGFDYYQVGVQTADYVAAILDGQEPGKLDVKVATGSDLVINESAASKLGIQLPSSVVQRATSMQ	not failed
EGLNICKKIMVISDKNDAISEFIIKELERGCTIIDGKGGYTGKDTYILYTVLNRKEFIRLRIFIKETDPNAFITISDAKEVLGEGFKEI	not failed
MRIEAAELRILELPLKFRFETSFGVQTKRTILLLRLFGEGLEGLGEGVMERLPLYREETVAGARYLLEEVFLPRVLGRDLPNPEALREALAPFRGNPMAKAVLEMAFFDLWAKALGRPLWQVLGGVRQAVEVGVSLGIQPSVEDTLRVVERHLEEGYRRIKLKIKPGWDYEVLKAVREAFPEATLTADANSAYSLANLAQLKRLDELRLDYIEQPLAYDDLLDHAKLQRELSTPICLDESLTGAEKARKAIELGAGRVFNVKPARLGGHGESLRVHALAESAGIPLWMGGMLEAGVGRAHNLHLATLPGFTKPGDVSSASRYWEEDIVEEALEAKDGLMPVPEGVGIGVHLKLPFVERVTLWQRYMSAS	not failed
NSESKSTPKRLHVSNIPFRFRDPDLRQMFGQFGKILDVEIIFNERGSKGFGFVTFENSADADRAREKLHGTVVEGRKIEVNNATARVMTN	not failed
MSVEIKRVDKHHCLDLVEIFIELEQYYFGDKAASEQDLANYLSHQVFSEHSGVKVIAAVEHDKVLGFATYTIMFPAPKLSGQMYMKDLFVSSSAPGKGIGLQLMKHLATIAITYNCQRLDWTAESTNPTARKFYKSIGASLIREKEYYRFEGNGLNKLAKSL	not failed
MNIVIAVGILVTLVTGIPVLLQLLKGHPRGLIICFLAEMWERFSYYGMRAILIFYLTQHFLFDPKAASGHYGSYTALVYLVPLIGGFLADKWLGTRKAVAFGAVLLVAGHLAMAIEGKPAVQTLTYQGATYEFQAEGRGQNREAKLVVDGKAYEVAATKVGDFEIKGLPANAPLPAVLPKADYKLDVAGRDPLYLNIFWFSLSLIILGVGFLKPNISTIVGQLYPQGDPRRDPGFTLYYYGINLGSFWASILCGLLGVNVGWWAGFGLAGVGMLAGFIVFVLGKPWLDGKAEPPEPKVLKEKVAGPINRELAIYGLSLVGLVGIFFLVQFNAIVGVALNIGILASLGYIGFFMFTKCAKEERERLALAVFLIFGAVVFWTLFEQAGSSLSLFAATNVQLDLVREPLRLFSGAVTLATPDQLAKAGIDAASTFWVDTSFNAPQTQALNAGWILIFAPVFAAVWTFLGARGKDPNPVIKFGLALIQVGAGFLLLQWGSTFADGAFKLPLIFLVLMYMLHTTGELCMSPVGLSQMTKLSPASVVSFMMAVWFLAVAIAQWVGGKIAGLAATETVGGQVLDPGAALAASLKVFNIIGLVAVAIGIGFLLLSPVLKKWSHGADNVGAPKKA	failed
